{"source": "patent US20180155451A1", "about": "(published 2018)", "binders": {"B1": {"name": "GpH7-A5/GpH7-B3 variant S267_16H/GpL16-k0 (antibody, human IgG1, kappa)", "heavy 1": "not shown", "heavy 2": "not shown", "light": "DIVMTQSPLSLPVTPGEPASISCQASESLVHSNRNTYLHWYLQKPGQSPQLLIYKVSNRFSGVPDRFSGSGSGTDFTLKISRVEAEDVGVYYCSQNTHVPPTFGQGTKVEIERTVAAPSVFIFPPSDEQLKSGTASVVCLLNNFYPREAKVQWKVDNALQSGNSQESVTEQDSKDSTYSLSSTLTLSKADYEKHKVYACEVTHQGLSSPVTKSFNRGEC", "notes": "heterodimerized IgG1, mutation in one H chain only; also called He Ab"}, "B2": {"name": "GpH7-A5/GpH7-B3 variant S267_19Q/GpL16-k0 (antibody, human IgG1, kappa)", "heavy 1": "not shown", "heavy 2": "not shown", "light": "B1 light", "notes": "as for B1"}, "B3": {"name": "GpH7-A5/GpH7-B3 variant S267_20W/GpL16-k0 (antibody, human IgG1, kappa)", "heavy 1": "not shown", "heavy 2": "not shown", "light": "B1 light", "notes": "as for B1"}, "B4": {"name": "GpH7-A5/GpH7-B3 variant S298_08L/GpL16-k0 (antibody, human IgG1, kappa)", "heavy 1": "not shown", "heavy 2": "not shown", "light": "B1 light", "notes": "as for B1"}, "B5": {"name": "GpH7-A5/GpH7-B3 variant V266_16H/GpL16-k0 (antibody, human IgG1, kappa)", "heavy 1": "not shown", "heavy 2": "not shown", "light": "B1 light", "notes": "as for B1"}, "B6": {"name": "GpH7-A5/GpH7-B3 variant V266_19Q/GpL16-k0 (antibody, human IgG1, kappa)", "heavy 1": "not shown", "heavy 2": "not shown", "light": "B1 light", "notes": "as for B1"}, "B7": {"name": "GpH7-A5/GpH7-B3 variant V266_20W/GpL16-k0 (antibody, human IgG1, kappa)", "heavy 1": "not shown", "heavy 2": "not shown", "light": "B1 light", "notes": "as for B1"}, "B8": {"name": "GpH7-A5/GpH7-B3 variant Y300_10E/GpL16-k0 (antibody, human IgG1, kappa)", "heavy 1": "not shown", "heavy 2": "not shown", "light": "B1 light", "notes": "as for B1"}, "B9": {"name": "GpH7-B3 variant L328_03V/GpL16-k0 (Ho Ab) (antibody, human IgG1, kappa)", "heavy": "not shown", "light": "B1 light", "notes": "Substitution in both H chains; position in EU numbering; also called L328V homodimerized antibody"}, "B10": {"name": "GpH7-B3 variant K334_15Y/GpL16-k0 (Ho Ab) (antibody, human IgG1, kappa)", "heavy": "not shown", "light": "B1 light", "notes": "Substitution in both H chains; position in EU numbering; also called K334Y homodimerized antibody"}, "B11": {"name": "GpH7-B3 variant K334_16H/GpL16-k0 (Ho Ab) (antibody, human IgG1, kappa)", "heavy": "not shown", "light": "B1 light", "notes": "Substitution in both H chains; position in EU numbering; also called K334H homodimerized antibody"}, "B12": {"name": "GpH7-B3 variant K334_18N/GpL16-k0 (Ho Ab) (antibody, human IgG1, kappa)", "heavy": "not shown", "light": "B1 light", "notes": "Substitution in both H chains; position in EU numbering; also called K334N homodimerized antibody"}, "B13": {"name": "GpH7-B3 variant K334_19Q/GpL16-k0 (Ho Ab) (antibody, human IgG1, kappa)", "heavy": "not shown", "light": "B1 light", "notes": "Substitution in both H chains; position in EU numbering; also called K334Q homodimerized antibody"}, "B14": {"name": "GpH7-B3 variant L328_04F/GpL16-k0 (Ho Ab) (antibody, human IgG1, kappa)", "heavy": "not shown", "light": "B1 light", "notes": "Substitution in both H chains; position in EU numbering; also called L328F homodimerized antibody"}, "B15": {"name": "GpH7-B3 variant L328_06M/GpL16-k0 (Ho Ab) (antibody, human IgG1, kappa)", "heavy": "not shown", "light": "B1 light", "notes": "Substitution in both H chains; position in EU numbering; also called L328M homodimerized antibody"}, "B16": {"name": "GpH7-B3 variant L328_07I/GpL16-k0 (Ho Ab) (antibody, human IgG1, kappa)", "heavy": "not shown", "light": "B1 light", "notes": "Substitution in both H chains; position in EU numbering; also called L328I homodimerized antibody"}, "B17": {"name": "GpH7-B3 variant L328_14T/GpL16-k0 (Ho Ab) (antibody, human IgG1, kappa)", "heavy": "not shown", "light": "B1 light", "notes": "Substitution in both H chains; position in EU numbering; also called L328T homodimerized antibody"}, "B18": {"name": "GpH7-B3 variant L328_15Y/GpL16-k0 (Ho Ab) (antibody, human IgG1, kappa)", "heavy": "not shown", "light": "B1 light", "notes": "Substitution in both H chains; position in EU numbering; also called L328Y homodimerized antibody"}}}
{"target": "T1, FcγRIIa H (human, UniProt P12318 34-217)", "T1 construct": "extracellular domain; also called FcγRIIa type H; 2aH", "T1 sequence (looked up)": "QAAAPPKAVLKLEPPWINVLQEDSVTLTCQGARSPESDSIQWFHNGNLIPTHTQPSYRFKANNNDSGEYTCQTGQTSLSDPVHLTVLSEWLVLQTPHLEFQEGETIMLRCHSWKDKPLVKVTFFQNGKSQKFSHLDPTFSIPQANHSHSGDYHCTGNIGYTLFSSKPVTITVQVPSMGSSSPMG", "test": "SPR (Biacore), relative binding vs GpH7-A5/GpH7-B3/GpL16-k0"}
{"binder": "B1", "He/Con_2aH": "29.8 % of control He Ab (=100)"}
{"binder": "B2", "He/Con_2aH": "61.3 % of control He Ab (=100)"}
{"binder": "B3", "He/Con_2aH": "37.9 % of control He Ab (=100)"}
{"binder": "B4", "He/Con_2aH": "85 % of control He Ab (=100)"}
{"binder": "B5", "He/Con_2aH": "21.2 % of control He Ab (=100)"}
{"binder": "B6", "He/Con_2aH": "46.4 % of control He Ab (=100)"}
{"binder": "B7", "He/Con_2aH": "12 % of control He Ab (=100)"}
{"binder": "B8", "He/Con_2aH": "97.2 % of control He Ab (=100)"}
{"target": "T2, FcγRIIb (human, UniProt P31994 43-217)", "T2 construct": "extracellular domain; also called 2b", "T2 sequence (looked up)": "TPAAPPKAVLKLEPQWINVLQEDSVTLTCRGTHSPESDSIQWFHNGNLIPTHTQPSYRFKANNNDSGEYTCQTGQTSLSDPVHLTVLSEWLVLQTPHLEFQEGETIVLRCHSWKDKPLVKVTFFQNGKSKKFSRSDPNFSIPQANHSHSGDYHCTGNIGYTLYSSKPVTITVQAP", "test": "SPR (Biacore), relative binding vs GpH7-A5/GpH7-B3/GpL16-k0"}
{"binder": "B1", "He/Con_2b": "65.9 % of control He Ab (=100)"}
{"binder": "B2", "He/Con_2b": "218 % of control He Ab (=100)"}
{"binder": "B3", "He/Con_2b": "57.2 % of control He Ab (=100)"}
{"binder": "B4", "He/Con_2b": "108 % of control He Ab (=100)"}
{"binder": "B5", "He/Con_2b": "57.2 % of control He Ab (=100)"}
{"binder": "B6", "He/Con_2b": "89.2 % of control He Ab (=100)"}
{"binder": "B7", "He/Con_2b": "71.9 % of control He Ab (=100)"}
{"binder": "B8", "He/Con_2b": "134 % of control He Ab (=100)"}
{"target": "T1, FcγRIIa H", "test": "SPR; He/Con_2aH divided by He/Con_2b (FcγRIIb)", "experimental": "The heterodimerized antibodies He Abs in which one of the H chains was introduced with an alteration were assayed for their binding activities to each activating FcγR and inhibitory FcγR according to the method described in Example 4. […] The activating FcγRs in FIGS. 26, 27, 28, and 29 are FcγRIa, FcγRIIa (R), FcγRIIa (H), and FcγRIIIa, respectively.\nAnalysis of interaction between objective antibody and the FcγR was carried out using Biacore T100 (GE Healthcare). HBS-EP+ (GE Healthcare) was used as the running buffer, and the measurement temperature was set to 25° C. Chips produced by immobilizing the antigen peptide by the amine coupling method to a Series S Sencor Chip CM5 (GE Healthcare), or alternatively, chips produced by allowing preliminarily biotinylated antigen peptides to interact with and immobilize onto a Series S Sensor Chip SA (certified) (GE Healthcare) were used. Antibodies of interest were captured onto an antigen peptide-immobilized chip, and allowed to interact to each FcγR diluted with running buffer. To regenerate and repeatedly use the chip, the antibodies captured on the chip were washed off by reacting 10 mM glycine-HCl, pH 1.5.", "units": {"He_2aH/2b (IIaH/IIb)": "ratio"}}
{"binder": "B1", "He_2aH/2b (IIaH/IIb)": 0.45}
{"binder": "B2", "He_2aH/2b (IIaH/IIb)": 0.28}
{"binder": "B3", "He_2aH/2b (IIaH/IIb)": 0.66}
{"binder": "B4", "He_2aH/2b (IIaH/IIb)": 0.78}
{"binder": "B5", "He_2aH/2b (IIaH/IIb)": 0.37}
{"binder": "B6", "He_2aH/2b (IIaH/IIb)": 0.52}
{"binder": "B7", "He_2aH/2b (IIaH/IIb)": 0.17}
{"binder": "B8", "He_2aH/2b (IIaH/IIb)": 0.73}
{"target": "T3, FcγRIIb extracellular domain with C-terminal His tag (human, UniProt P31994 43-217)", "T3 construct": "extracellular domain; Expressed in FreeStyle293 cells; used as analyte in Biacore; also called FcgRIIb; 2b; not shown: C-terminal His tag", "T3 sequence (looked up)": "T2 sequence (looked up)", "test": "SPR (Biacore), antibody captured on antigen-peptide chip, FcgRIIb as analyte; binding relative to GpH7-B3/GpL16-k0 (HoCon Ab) = 100"}
{"binder": "B9", "Ho/Con_2b": "135 % of control"}
{"binder": "B10", "Ho/Con_2b": "126 % of control"}
{"binder": "B11", "Ho/Con_2b": "124 % of control"}
{"binder": "B12", "Ho/Con_2b": "128 % of control"}
{"binder": "B13", "Ho/Con_2b": "117 % of control"}
{"binder": "B14", "Ho/Con_2b": "241 % of control"}
{"binder": "B15", "Ho/Con_2b": "171 % of control"}
{"binder": "B16", "Ho/Con_2b": "188 % of control"}
{"binder": "B17", "Ho/Con_2b": "146 % of control"}
{"binder": "B18", "Ho/Con_2b": "272 % of control"}
